Tested on: MS2 coat protein
Assay: apparent KD of MS2 coat protein; designed switch direction (-1 OFF switch, 1 ON switch): -1; higher = weaker reporter binding
Procedure, shortened: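 The reported apparent KD is a per-design median over clusters, from curve fits of normalised cluster fluorescence. Protein titrations used SNAP-549-labelled MS2 coat protein, doubled from 0.7 or 1.5 nM to 3 µM, in Tris-HCl pH 7.5 buffer with KCl, MgCl2, BSA, DTT, tRNA and Tween-20, with no input, 200 uM small-molecule ligand, or an oligonucleotide input. The RNA switches were transcribed on Illumina chips by stalled E. coli RNA polymerase.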

[1] = input ligand: microRNA oligo, concentration not stated
[2] = Eterna round: R95, input ligand: FMN 200 uM
[3] = Eterna round: R95, input ligand: microRNA oligo, concentration not stated
[4] = Eterna round: R95, input ligand: none

Sequence	apparent KD of MS2 coat protein (input ligand: FMN 200 uM)	apparent KD of MS2 coat protein [1]	apparent KD of MS2 coat protein (input ligand: none)	apparent KD of MS2 coat protein [2]	apparent KD of MS2 coat protein [3]	apparent KD of MS2 coat protein [4]
CUUGUUUAUGUAGGAUAUGCCUGGCGUGCCUUUGCAGAAGGACAUGAGGAUCACCCAUGUAACAUGAGGCUCACCCUUGUCGCC [salish99_ExNG1_r04_116] (Eterna round: R96, puzzle: Exclusion NG 1)	0.146 µM	0.0901 µM	0.114 µM	–	–	–
GGUCUACAUGAGGAUCACCCAUGUAAGGAUAUCGUCACUGGAGCCUCGGCUCCAGUGACGAGAAGGUACGUAAU [E1/12-A2] (Eterna round: R97, puzzle: Exclusion 1)	0.0315 µM	–	0.0345 µM	–	–	–
AGCUAGUGCCGAGGAUAUACAUGAGGAUCACCCAUGUAGCCGUGAGGCUUUGUCUCACGGGAUAUGUAGAAGGCGGCGUUGGCA [JL ENG2 1.53] (Eterna round: R96, puzzle: Exclusion NG 2)	0.0341 µM	0.0118 µM	0.0183 µM	–	–	–
UUAAGGGACUGAGGAUAUACAUGAAUUAUGUUUGUAGAAGGCAGAUUGUUAGUUUAUUCACUAUACAUGAGGAUCACCCAUGUU [JR_ExcNG1_Sub019] (Eterna round: R96, puzzle: Exclusion NG 1)	–	0.0171 µM	–	–	–	–
ACGCGACAUGAGGAUCACCCAUGUGAGGAUAUGGCCUGUUUGUCGUGUGCUGGCUCUGUCAGAAGGCGCGUUGG [salish99_ex1_r4_042] (Eterna round: R97, puzzle: Exclusion 1)	0.255 µM	–	0.128 µM	–	–	–
ACUUGUGUUGAGGAUAUGCGACGCAACGGUGGAGCAGAAGGCGGCACAUGAGGAUCACCCAUGUCAGUUCGCGA [eternacac ex6r4 sub33] (Eterna round: R97, puzzle: Exclusion 6)	0.0863 µM	–	0.0146 µM	–	–	–
AGUUGUUGUUUCCGUUCUUACAUGAGGAUCACCCAUGUUUCUUGUCGUGCUCGCGUUGCUCGUCUGACUACCUGUUG [salish99_TOv1_r3_067] (puzzle: Sensor v3, turn-off variant 1)	–	–	–	0.0525 µM	0.0403 µM	0.0681 µM
AAAAGGACAGGAUAUUCGACUCGCAACAUGAGGAUCACCCAUGUGGUCGUCCAGUCGCUCGAAGAAGGGUUAAAAC [Cegeesbe] (puzzle: Exclusion 5)	–	–	–	0.0747 µM	0.0267 µM	0.0313 µM
UAUUAGCAAGCGAGAUCCCACAUGAGGAUCACCCAUGUAACAUCCAGAAUUACUGGGUGCAAAGCUCGUCUUAUAUA [Winner reversed engineered 3] (Eterna round: R97, puzzle: Sensor, turn-off variant 1)	0.434 µM	–	0.496 µM	–	–	–
GCAGGUUAAGUCAGGAUAUACCUAUGGAUACAUAGGUAGAAGGGACAUGAGGAUCACCCAUGUGUCUCGCCUGC [Fiskers BMX 4 - 70] (puzzle: Brourd's mod of Exclusion 4)	–	–	–	–	0.0627 µM	–
GAUAAGGUAGGAUAUACGAAUAAAUAGGGUAGAAUAAUAACACAUGAGGAUCACCCAUGUAGAAGGACCAAUAG [Mat - Exclusion 2 - Mod of my Tesla design - D26] (puzzle: Exclusion 2)	–	–	–	0.0389 µM	0.0256 µM	0.0263 µM
AGUACUCUCACGAAAGUGAGAGUACAAAAAGCAAGUGAAACAUGAGGAUCACCCAUGUCCUCAUUUGCUCGUCUUAU [Mat - Sensor v2 -ver2- JL mod - D88] (Eterna round: R96, puzzle: Sensor v2, turn-off variant 2)	0.0118 µM	0.413 µM	0.0144 µM	–	–	–
GUACGAGCCAAACACGUGGACAUGAGGAUCACCCAUGUGUCACCGGAUCCAUAGAGCUCGUCUUACCGACAAAAGCU [Eternabot (Original) Solution 17] (Eterna round: R97, puzzle: Sensor, turn-off variant 1)	0.0289 µM	–	0.0316 µM	–	–	–
UCCUCACAUGAGGAUCACCCAUGUUAGGAUAUCUUAGAGCGCGAAAGACAGUUCUUUAAGAGAAGGAACUGGGC [Exclusion 1 (MOD1 of Edarti)] (Eterna round: R97, puzzle: Exclusion 1)	0.054 µM	–	0.0224 µM	–	–	–
CUUUUUUUUGUGAGGAUAUACUGUUAUUAAAGUUAGUAGAAGGUACAUGAGGAUCACCCAUGUUAAUUACUUUA [JR_BME4_Sub050] (puzzle: Brourd's mod of Exclusion 4)	–	–	–	–	0.0129 µM	–
GGUGUGAGGCAGGAUAUGCUAUAUGUUAGUAAUGCAGAAGGGUCUACAUGAGGAUCACCCAUGUGUGCGGUAGA [Ex6 #4] (Eterna round: R97, puzzle: Exclusion 6)	0.345 µM	–	0.139 µM	–	–	–
UUUUCAUAUGAAGGAUAUACUUAACAUGAGGAUCACCCAUGUGGUGUUGUGAGUGAGUGAGUUUAGUAGAAGGUCAAUUCUUUU [JMF's solution 90] (Eterna round: R96, puzzle: Exclusion NG 2)	0.613 µM	0.277 µM	0.351 µM	–	–	–

Sequence	apparent KD of MS2 coat protein (input ligand: FMN 200 uM)	apparent KD of MS2 coat protein [1]	apparent KD of MS2 coat protein (input ligand: none)	apparent KD of MS2 coat protein [2]	apparent KD of MS2 coat protein [3]	apparent KD of MS2 coat protein [4]
AAUAACAAGCUGAUCCUGCACAUGAGGAUCACCCAUGUGCUCGUCUUGUAAAGUACUAUCACGAAAGUGAUAGUACA (Eterna round: R97, puzzle: Sensor, turn-off variant 1)	0.0163 µM	–	0.0212 µM	–	–	–
AGGAAGCAAGGAUAUACGAGGAGAAGGUGGAGAGUUAAAGGACAUGAGGAUCACCCAUGUAGAAGGUGCGAGAA [JR_Exclu2_Sub045] (puzzle: Exclusion 2)	–	–	–	–	0.0522 µM	–
CGUGUACGAGGAUAUAGAUUGGAUGACAUGAGGAUCACCCAUGUGAUCAAUCUAUUUGGUUUAGAAGGUGUACAUG [JR_Ex5_Sub050] (Eterna round: R97, puzzle: Exclusion 5)	0.0141 µM	–	0.0148 µM	–	–	–
ACAAGCUUAUUGCUCGGGUACAUGAGGAUCACCCAUGUUAGUGAUUAUAGAGAAUGUGUUGACGUGCGCUGCAGGUU [JR_SV3TOV1_Sub079] (puzzle: Sensor v3, turn-off variant 1)	–	–	–	0.0755 µM	0.046 µM	0.0922 µM
GCGUCGAGUGUGAGGAUAUGCUGGUCCUUGGAUCAGCAGAAGGCACAUGAGGAUCACCCAUGUGAAAACGAUGC [Mat - Exclusion 4 - JL Mod - D68] (puzzle: Brourd's mod of Exclusion 4)	–	–	–	–	0.0188 µM	–
UUUAUGUCAGGAUAUGAGUAGUAGAACAAUAGUACUACUACUCAGAAGGGACAUGAGGAUCACCCAUGUUCUUC [Fiskers Ex 4 Super stable 44 mod 23] (puzzle: Exclusion 4)	–	–	–	–	0.0163 µM	–
UUAAAACGUGUAGGAUAUGCGUGGCGAAGCUAUGCAGAAGGACAUGAGGAUCACCCAUGUUCCUGCGUCCGCGUACGGAUGCAA [JL Eng1 1.21 mod 2] (Eterna round: R96, puzzle: Exclusion NG 1)	0.018 µM	0.0119 µM	0.0131 µM	–	–	–
UAUUAGCAAGCAACUGGGUACAUGAGGAUCACCCAUGUGCUCGUCUUAUAAGGUACUGUUACGAAAGUCACGGUACC [mod--Eli12] (Eterna round: R97, puzzle: Sensor, turn-off variant 1)	0.0173 µM	–	0.0159 µM	–	–	–
UCACAGUGAGGAUAUUUAAAAUCGGAACCAGUUACCCGGAUGAAGAAGGCACAUGAGGAUCACCCAUGUGGACG [Eternabot (L2) Solution 14] (Eterna round: R97, puzzle: Exclusion 4)	0.0167 µM	–	0.0153 µM	–	–	–
UUUGACUAAGGAUAUCCUUUUGACCACAUGAGGAUCACCCAUGUAUUCCACAAGUGCGAAGGAGAAGGUGGGAAGG [Eternabot (L2) Solution 28] (Eterna round: R97, puzzle: Exclusion 5)	0.0656 µM	–	0.0561 µM	–	–	–
CCCAGGGCAGGAUAUAGAGGGCGAAACAUGAGGAUCACCCAUGUGACCUCGGAACAGCUGCUAGAAGGGCCAAAUU [Beesquti] (puzzle: Exclusion 5)	–	–	–	0.0211 µM	0.0148 µM	0.0153 µM
UUUAGUUCAGGAUAUGUAGAUUUUAACAUGAGGAUCACCCAUGUGGAUCCUGAAUUAACUACAGAAGGGAACAUUU [Mod of Brourd 3 - Jieux - Exclusion 5] (Eterna round: R97, puzzle: Exclusion 5)	0.294 µM	–	0.043 µM	–	–	–
CUGCUCCGUGUAGGAUAUGCCCGCACCACCCGGGCAGAAGGACAUGAGGAUCACCCAUGUAUGUUAUUAUCACGUGUGGCGCGC [Design 39] (Eterna round: R96, puzzle: Exclusion NG 1)	0.0237 µM	0.0117 µM	0.0164 µM	–	–	–
AAUAAGCUAGGAUAUACAUGAGGAUCACCCAUGUGAGGGCACCGCCGGCGCGGGCCCGGUAGAAGGAGCAAUAA [Exc;s3-IV] (puzzle: Exclusion 3)	–	–	–	–	0.0161 µM	–
CCUCUACAUGAGGAUCACCCAUGUGAGGAUAUCAAAGCCGAAGCAAAUCUCCGGCCCAUGAGAAGGUGCAUGGA [EX1 A.9] (Eterna round: R97, puzzle: Exclusion 1)	0.0874 µM	–	0.0195 µM	–	–	–
ACGGUUCUCCUCAGCUACAUGAGGAUCACCCAUGUGACUGAGCAGGAUAUACAUAAGUGCGAAAAGUAGAAGGGCUCGGCGCAC [Xeora] (Eterna round: R96, puzzle: Exclusion NG 3)	0.0122 µM	0.00875 µM	0.0127 µM	–	–	–
CUGUACUGAGGAUAUACAUGAGGAUCACCCAUGUUCCAAGGCUAGGAAACUAGCAAAAGUAGAAGGCAGUACAG [Mat - Exclusion 3 - Eli Mod - D55] (Eterna round: R97, puzzle: Exclusion 3)	0.556 µM	–	0.0327 µM	–	–	–

Source: the supplement of paper PMC9170038
